Source: article PMC6586363, “Phenotypic selection with an intrabody library reveals an anti-apoptotic function of PKM2 requiring Mitofusin-1” (PLoS Biology, 2019)

Tests used:
[1] = target: T1, pyruvate kinase M2 (PKM2), endogenous in 293T cells (Homo sapiens (Human)., UniProt P14618); assay: affinity purification with mass spectrometry; lysate (1% Triton X-100) of 293T cells expressing FLAG/Strep-tagged intrabody; anti-FLAG M2 beads 2 h at 4°C, elution with 3X FLAG peptide, then Strep-Tactin; SDS-PAGE with silver stain, bands identified by MALDI TOF/TOF; details: partners not purified
T1 construct: pyruvate kinase isoform M2 (PKM2), product of the PKM gene with exon 10; also called 55-kD protein; source: endogenous, HEK293T lysate

[2] = target: the molecule itself; assay: native gel or EMSA; blue native gel electrophoresis of recombinant PKM2 (WT or mutant) or PKM1, alone or with FBP and/or scFv 5; resolves dimer and tetramer forms
[3] = target: T2, recombinant human PKM2, wild type (human, UniProt P14618); assay: native gel or EMSA; blue native gel electrophoresis; recombinant scFv 5 mixed with recombinant PKM2 (WT or mutant) or PKM1 at various molar ratios, reaction volume 20 μl; details: both partners purified
T2 construct: Runs as dimer and tetramer on blue native gels; also called WT PKM2; His-hPKM2; source: E. coli BL21 (DE3), purified (Ni-NTA)
T2 sequence (P14618 whole entry): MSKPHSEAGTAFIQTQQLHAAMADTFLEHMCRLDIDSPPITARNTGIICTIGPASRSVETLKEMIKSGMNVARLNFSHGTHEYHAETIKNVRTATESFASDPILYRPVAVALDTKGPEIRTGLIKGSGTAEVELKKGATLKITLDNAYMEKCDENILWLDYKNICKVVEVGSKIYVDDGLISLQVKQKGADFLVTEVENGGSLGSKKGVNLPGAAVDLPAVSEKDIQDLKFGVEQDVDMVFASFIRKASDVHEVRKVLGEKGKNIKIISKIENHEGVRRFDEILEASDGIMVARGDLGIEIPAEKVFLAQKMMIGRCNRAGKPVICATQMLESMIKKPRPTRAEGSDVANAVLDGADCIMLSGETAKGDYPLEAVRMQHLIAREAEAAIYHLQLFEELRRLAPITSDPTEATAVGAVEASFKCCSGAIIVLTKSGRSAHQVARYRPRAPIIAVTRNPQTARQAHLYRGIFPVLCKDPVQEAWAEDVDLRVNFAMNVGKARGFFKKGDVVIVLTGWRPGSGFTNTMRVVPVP

T1 sequence (P14618 whole entry, canonical isoform): as the sequence (P14618 whole entry) above

B1: intrabody 5 (IB5) (scFv, V domains shown)
VH: QVQLVETGPGLVKPSETLSLRCTVSGGSFDNYYWNWIRQPPGKGLEYIGYVFPSTGATNYNPSLGSRVTISLDTSKNQFSLTLTSVTTADTAIYYCVRSGHDLWTGSTWFDPWGQWTTVTVSS
VL: EIVLTQSPGTLSLSPGERATLSCRASQSVSSSYLAWYQQKPGQAPRLLIYGASSRATGIPDRFSGSGSGTDFTLTISRLEPEDIAVYYCQQRSNWPRTFGQGTKVEIK
notes: human VH and VL joined by a flexible peptide linker, from a naive human combinatorial scFv library; Expressed without a secretion leader from an EF1alpha lentiviral vector; The tandem Strep-tag was added for the target immunoprecipitation construct; also called clone 5; scFv 5; source: HEK293T, infected with intrabody lentivirus, in lysate; not shown: FLAG, C-terminal, kept
Question: Does B1 bind [1]?
Answer: binds

B2: recombinant PKM2 (K270M) (enzyme)
chain: not shown
notes: human pyruvate kinase isoform M2 with K270M, plasmid pET28a-His-hPKM2 (K270M); source: E. coli BL21 (DE3), purified (Ni-NTA)
Question: With B2 as the binder, how does the “stoichiometry N” value [2] read?
Answer: 2

B3: recombinant monovalent scFv 5 (corresponding to IB5) (scFv, V domains shown)
VH: B1 VH
VL: B1 VL
notes: as the scFv of m1; also called purified scFv 5; recombinant scFv; source: E. coli Rosetta (DE3)pLys, pET28a, purified (Ni-NTA)
Question: Does B3 bind [3]?
Answer: binds

B4: recombinant PKM2 (K422R) (enzyme)
chain: not shown
notes: human pyruvate kinase isoform M2 with K422R; also called stably tetrameric PKM2 mutant; source: recombinant; WT and mutant PKM2 proteins from E. coli BL21 (DE3), purified (Ni-NTA)
Question: How did the “stoichiometry N” value [2] turn out when B4 was run?
Answer: 4
